Measurements from paper PMC8095197 (bioRxiv, 2021).

Target: SARS-CoV-2 RBD (SARS-CoV-2, reference (Wuhan-Hu-1) …, UniProt P0DTC2)
Test: ELISA

B1: DH1047 IgG (antibody, V domains shown)
VH: QVQLVQSGAEVKKPGASVQVSCQASANTFTNHYIHWVRQAPGQGLEWMGIIYPTGGNTIYAQGFQGRVTMTRDTSLNTIYLELSSLRSEDTAVYYCARDVRVDDSWSGYDLLSGGTYFDYWGQGTLVTVSS
VL: not shown
binding result: binds
